# B1: ds9 (competitor duplex) (dsRNA)
# RNA 1: GCCGCCCGG
# RNA 2: CCGGGCGGC
# Target: HCV NS3 helicase (WT) (Hepatitis C virus (subgenomic replicon …, UniProt Q9WMX2 1027-1657))
# Assay: competition
# HCV NS3 helicase (WT) (Hepatitis C virus, sequence (Q9WMX2 1027-1657): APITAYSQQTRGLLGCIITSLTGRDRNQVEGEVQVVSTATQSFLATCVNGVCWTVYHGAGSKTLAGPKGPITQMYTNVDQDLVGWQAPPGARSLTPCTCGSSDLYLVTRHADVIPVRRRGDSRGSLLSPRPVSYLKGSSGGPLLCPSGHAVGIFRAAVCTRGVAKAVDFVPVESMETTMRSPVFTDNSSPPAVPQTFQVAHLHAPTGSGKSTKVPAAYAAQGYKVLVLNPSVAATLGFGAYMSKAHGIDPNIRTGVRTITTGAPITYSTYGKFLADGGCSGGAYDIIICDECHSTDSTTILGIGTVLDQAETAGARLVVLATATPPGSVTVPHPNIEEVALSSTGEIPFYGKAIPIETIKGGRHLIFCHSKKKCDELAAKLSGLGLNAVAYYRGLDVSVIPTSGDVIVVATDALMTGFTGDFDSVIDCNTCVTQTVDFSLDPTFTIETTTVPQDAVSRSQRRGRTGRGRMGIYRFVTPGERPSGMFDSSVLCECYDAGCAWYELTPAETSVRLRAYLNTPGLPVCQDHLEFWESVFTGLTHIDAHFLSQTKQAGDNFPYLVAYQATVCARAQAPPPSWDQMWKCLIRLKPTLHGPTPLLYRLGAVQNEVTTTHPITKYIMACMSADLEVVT
binder,measurement,value
B1,Ki,90 ± 20 nM
